Data from patent publication US10689421B2, “Bacteriocin-producing Paenibacillus ehimensis and application thereof” (National Pingtung University of Science and Technology, priority 2018, dated 2020).

Key:
[1] = system: E. coli; experiment: Evaluation of antibacterial protein pH tolerance; type: physicochemical; conditions: 28° C.
Protocol: Add the purified antibacterial substance in PBS buffer pH7.4 as control group. The experimental groups comprise pH 2, pH3, pH 4, pH 5, pH 6, pH 7, pH 8, pH 9 and pH 10 group, the buffer used for different pH treatment are Glycine-HCl buffer (pH 2.0), Citrate-phosphate Mcllvaine buffer (pH 3.0, 4.0, 5.0 and 6.0), Sodium-phosphate buffer (pH 7.0), Tris(hydroxymethyl) aminomethane buffer (pH 8.0 and 9.0) and Glycine-NaOH buffer (pH 10.0). First, add 500 μl of purified antibacterial protein in 15 ml centrifuge individually for each group, then add 2 ml of different pH buffer to change pH environment of treated antibacterial substance and stand for 4 hours under 28° C. After 4 hours, measure the antibacterial activity and inhibitory zone diameter using TSB agar plate containing E. coli.

[2] = system: E. coli; experiment: Evaluation of antibacterial protein temperature tolerance; type: physicochemical; conditions: 30, 40, 50, 60, 70, 80, 90, 100 and 121° C. for 1 hour; control 4° C.
Protocol: Place 100 μl Peocin under 30° C., 40° C., 50° C., 60° C., 70° C., 80° C., 90° C., 100° C. and 121° C. respectively and stand for an hour, all treatment group except 121° C. group is put in the dry bath incubator, which can set to temperature 30° C.˜100° C. The 121° C. group is put in the sterilizer which can proceed wet heat sterilize at 121° C. Use Peocin stored under 4° C. as control group, and use the TSB agar plate containing E. coli to measure antibacterial activity and inhibitory zone diameter after an hour.

[3] = system: E. coli; experiment: Antibacterial activity of purified antibacterial protein (Resazurin reduction assay); type: cell-based; conditions: compared with the unpurified culture supernatant
Protocol: Antibacterial activity is evaluated by using Resazurin reduction assay. The Resazurin reduction assay is used to determine bacteria or cell activity, based on its reaction with mitochondria NADH dehydrogenase, which reduces the original dark blue Resazurin into pink Resorufin. Dilute the indicator bacterial strain E. coli cultured in advance to 1×10^7 CFU/ml and prepare 0.25 mg/ml Resazurin dye for following experiment. 96-well plate was divided into groups of three well as a triplication of one sample set; the total being 21 sets and every well was added with 60 μl TSB medium, 10 μl Resazurin dye, 10 μl indicator strain and 20 μl sample (total 100 μl). The aforementioned 20 μl sample is prepared by adding 0, 1, 2, . . . 20 μl of sample medium respectively, then use TSB medium to fill the total sample volume to 20 μl. Place the sample added 96-well plate in 37° C. incubation box for 12 hours and observe the results. Antibacterial unit (AU) is determined by Resazurin assay, whereas the minimum amount of sample medium required to inhibit color change is 1AU. The antibacterial activity of sampled culture in each time point is represented by how many AU there is in 1 ml of medium.
Take 500 μl liquid bacteria from −80° C. preserved NPUST-1 strain, add it to 50 ml TSB broth culture and culture it for 24 hours under 28° C. for activation. […]

B1: Peocin: bacteriocin; DNA starvation/stationary phase protection protein produced by Paenibacillus ehimensis NPUST-1, amino acid SEQ ID NO: 1 (protein, listed as Paenibacillus ehimensis)
chain: MNEQLTVLLNNQIANWSVLYVKLHNYHWYVKGPQFFTLHTKFEELYTEAALHVDALAERLLALGGKPVATMSGSLRLASVREAEGEESAERMVAALVNDFTLIIGELKSGMKYAESVQDETTGDLLLAIHSSLEKHVWMLNAFLGN
antibacterial activity remained ([1]; pH2 for 4 hours): 87%
antibacterial activity after pH treatment ([1]; pH 3~10 for 4 hours): remain stable
antibacterial activity after temperature treatment [2]: maintain original antibacterial activity
antibacterial activity after preliminary purification [3]: significantly higher
